According to the Human Domainome abundance scans (Beltran et al. 2025):

B1: REST corepressor 3, residues 87 to 134; numbered along this chain, Q9P2K3 (parent)
chain: DEWTVEDKVLFEQAFSFHGKSFHRIQQMLPDKTIASLVKYYYSWKKTR
B2: Zinc finger homeobox protein 4, residues 2086 to 2141; numbered along this chain, Q86UP3 (parent)
chain: RPRTRITDDQLKILRAYFDINNSPSEEQIQEMAEKSGLSQKVIKHWFRNTLFKERQ

Variants of: B1
Experiment: abundance fitness (aPCA) (normalised: wild type 0, dead -1); higher = more abundant; growth selection in yeast, the domain comes from the species named
Conditions: Homo sapiens

Abundance fitness, by site and new letter:
D1: E -0.195, G 0.138
T4: S -0.198, V -0.756, G -0.84, N -0.257, R -0.634, L -0.727, P -0.83, D -0.53
W3: V -0.677, R -1.02, I -0.465, F -0.264, C -0.776, M -0.629, L -0.858, S -0.651, G -0.912
V5: D -0.104, C -0.478, A -0.137
E2: Q -0.486, G 0.037, K 0.3, T -0.302, V -0.859, A -0.797, R -0.107, C -0.116, L -0.593, N 0.294, Y -0.208, S -0.441, H -0.265

Variants of: B2
Experiment: as above
Conditions: Homo sapiens

Abundance fitness of substitutions, site by site:
F52: W -0.174, T 0.052, D -0.085, K 0.068, A -0.029, I 0.014, N 0.134, L -0.005, S -0.067, R 0.184, V 0.062, Y -0.02, C 0.13, G 0.035, H 0.018, Q 0.006, M -0.131
K41: P -0.307, H 0.033, I -0.106, W -0.123, T -0.093, S -0.141, A -0.136, Q -0.235, G -0.042, C 0.032, E -0.043, M -0.146, F -0.02, D 0.183, V -0.124, N -0.393, L -0.174
Q40: G -0.173, P -0.114, S -0.115, N -0.217, R -0.062, F 0.038, K 0.082, E -0.253, M 0.03, I -0.091, Y -0.157, T -0.188, L -0.003, V -0.098, D -0.232, W -0.11, C -0.1, A -0.14, H -0.172
W46: D -0.297, F -0.237, L -0.239, M -0.376, T -0.203, G -0.655, S -0.406, K -0.737, V -0.221, I -0.331, Y 0.001, E -0.141, R -0.516, A -0.313, P -0.698, Q -0.483, N -0.762
L51: H -0.071, M 0.005, A 0.007, D -0.047, S -0.1, I -0.237, G -0.134, P -0.125, Y -0.098, Q 0.126, R -0.092, V 0.04, W -0.163, N -0.12, F -0.257, K -0.043, T -0.065, E -0.127
E54: R -0.1, C -0.205, G -0.17, D -0.102, M -0.375, T -0.189, H -0.238, K -0.169, S -0.047, F -0.231, L -0.035, N -0.149, I -0.403, P -0.182, V -0.057, W -0.215, Q -0.206, A -0.082
I43: G -1.24, E -0.946, K -1.19, M -0.541, S -0.994, L -0.195, Y -0.8, A -0.488, P -1.09, H -1.05, D -0.876, F -0.607, N -1.02, C -0.367, V -0.073, W -0.928, Q -1.02
K53: T -0.042, N -0.023, I 0.141, Y -0.064, C -0.201, P -0.285, F -0.284, M -0.114, G -0.071, S 0.016, D -0.041, W -0.131, Q -0.072, H 0.023, V -0.157, L 0.06
S39: T -0.135, R 0.007, W -1.16, Y -0.14, P -0.115
N49: E 0.079, H 0.141, I 0.019, L -0.172, R -0.009, Q -0.155, D 0.085, A -0.023, W -0.12, K 0.123, S -0.022, P -0.383, Y -0.169, T 0.025
V42: T -0.057, E 0.031, D 0.093, K -0.079, M -0.021, N -0.212, P -0.478, W -0.112, L -0.085, S -0.059, R 0.086, H -0.069, Y -0.065, A 0.012, C -0.002, G -0.077, Q -0.037, I -0.057, F 0.007
R48: C -0.056, Y -0.289, I -0.164, N 0.125, D -0.09, E -0.153, V -0.111, A -0.047, F -0.142, G -0.042, M -0.095, Q 0.056, H 0.049, T 0.1, S -0.112, L -0.04, W -0.185, P -0.444
F47: Q -0.342, N -0.398, G -0.753, P -0.951, L -0.149, Y -0.096, C -0.134, E -0.517, D -0.708, I -0.416, S -0.287, R -0.506, M -0.097, H -0.146, W -0.197, K -0.558, V -0.041, T -0.234
R55: H 0.256, L -0.091, A -0.025, I -0.632, N -0.255, W -0.215, S -0.011, D -0.163, C 0.016, Y -0.431, Q -0.028, E -0.059, V -0.204, P -0.118, T -0.158, F -0.125, G -0.038, M -0.198
K44: R -0.01, T -0.017, L -0.204, N -0.042, D 0.068, V -0.186, G 0.001, A 0.038, S -0.069, C -0.204, M -0.098, Q -0.362, H -0.042, E -0.031, I -0.25, Y 0.049, W -0.312, P -0.716, F -0.023
H45: F -0.082, N -0.061, R 0.08, Q -0.006, L -0.042, M -0.059, S -0.004, P -0.207, Y -0.034, E 0.09, T 0, D 0.006, W 0.023, C -0.181, V -0.059, K 0.038, I -0.114, G -0.029, A -0.018
T50: S -0.053, C -0.213, F -0.182, D 0.102, N 0.007, E 0.051, M 0.065, R -0.032, I -0.119, Y -0.288, Q 0.035, G -0.079, A -0.013, L -0.061, W -0.109, K -0.016
Q56: R -0.024, A -0.646, C -0.802, S -0.502, M -0.12, V -0.568, L -0.214, W -0.492, E -0.77, N -0.083, K 0.295, T -0.07, H -0.363, G -0.439
